Measured values: publication PMC9684461, “RNA-controlled nucleocytoplasmic shuttling of mRNA decay factors regulates mRNA synthesis and a novel mRNA decay pathway” (Nature Communications, 2021)
Blank lines part the entries; values can stand above or below the molecule they belong to.

T1: TAP-tagged Kap120 (S. cerevisiae, UniProt Q02932 1-1032)
T1 construct: karyopherin Kap120 of S. cerevisiae, TAP-tagged, expressed in yeast; also called Kap120-TAP; source: yeast, in extract, captured on IgG-sepharose
T1 sequence (looked up): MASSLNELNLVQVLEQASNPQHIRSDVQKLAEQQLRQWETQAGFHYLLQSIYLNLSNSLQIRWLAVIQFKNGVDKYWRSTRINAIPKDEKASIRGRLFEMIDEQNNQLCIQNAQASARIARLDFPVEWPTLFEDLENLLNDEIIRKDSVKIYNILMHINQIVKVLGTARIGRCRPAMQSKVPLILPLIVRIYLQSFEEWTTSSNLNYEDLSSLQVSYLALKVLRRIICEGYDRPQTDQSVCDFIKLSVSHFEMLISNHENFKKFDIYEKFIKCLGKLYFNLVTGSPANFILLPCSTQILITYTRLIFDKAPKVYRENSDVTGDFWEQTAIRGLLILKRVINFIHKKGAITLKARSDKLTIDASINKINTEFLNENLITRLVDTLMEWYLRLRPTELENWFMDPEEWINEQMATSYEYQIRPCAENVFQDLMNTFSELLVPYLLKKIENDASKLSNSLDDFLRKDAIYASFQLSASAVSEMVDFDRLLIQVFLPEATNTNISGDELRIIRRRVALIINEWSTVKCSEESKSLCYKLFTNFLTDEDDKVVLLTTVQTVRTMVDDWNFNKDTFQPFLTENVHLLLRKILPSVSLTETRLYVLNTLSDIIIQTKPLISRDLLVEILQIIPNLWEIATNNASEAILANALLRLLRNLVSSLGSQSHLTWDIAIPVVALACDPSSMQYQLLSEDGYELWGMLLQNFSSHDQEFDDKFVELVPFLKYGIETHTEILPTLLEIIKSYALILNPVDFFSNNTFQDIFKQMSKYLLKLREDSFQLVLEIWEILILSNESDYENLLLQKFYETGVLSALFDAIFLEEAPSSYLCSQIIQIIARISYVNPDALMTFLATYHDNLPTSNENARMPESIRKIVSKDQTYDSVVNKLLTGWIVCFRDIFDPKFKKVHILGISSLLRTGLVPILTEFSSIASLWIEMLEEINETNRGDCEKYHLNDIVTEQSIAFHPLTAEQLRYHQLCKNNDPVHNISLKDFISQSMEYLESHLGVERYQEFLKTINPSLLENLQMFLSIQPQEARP

B1: Cy3-labeled 40 b RNA (ssRNA)
RNA: AUGUACAGUCCGACGAACACGGAGUCGACCCGCAACGCGA
B2: recombinant 6xHis-tagged Kap120 (natural protein, S. cerevisiae, UniProt Q02932 1-1032, looked up)
chain: T1 sequence (looked up)
notes: karyopherin (importin) Kap120 of S. cerevisiae; also called Kap120-6xHis; Kap120-His; source: E. coli, IPTG induced, purified (Ni-NTA)
B3: Pat1 (natural protein, S. cerevisiae (endogenous in yeast), UniProt P25644 1-796, looked up)
chain: MSFFGLENSGNARDGPLDFEESYKGYGEHELEENDYLNDETFGDNVQVGTDFDFGNPHSSGSSGNAIGGNGVGATARSYVAATAEGISGPRTDGTAAAGPLDLKPMESLWSTAPPPAMAPSPQSTMAPAPAPQQMAPLQPILSMQDLERQQRQMQQQFMNFHAMGHPQGLPQGPPQQQFPMQPASGQPGPSQFAPPPPPPGVNVNMNQMPMGPVQVPVQASPSPIGMSNTPSPGPVVGATKMPLQSGRRSKRDLSPEEQRRLQIRHAKVEKILKYSGLMTPRDKDFITRYQLSQIVTEDPYNEDFYFQVYKIIQRGGITSESNKGLIARAYLEHSGHRLGGRYKRTDIALQRMQSQVEKAVTVAKERPSKLKDQQAAAGNSSQDNKQANTVLGKISSTLNSKNPRRQLQIPRQQPSDPDALKDVTDSLTNVDLASSGSSSTGSSAAAVASKQRRRSSYAFNNGNGATNLNKSGGKKFILELIETVYEEILDLEANLRNGQQTDSTAMWEALHIDDSSYDVNPFISMLSFDKGIKIMPRIFNFLDKQQKLKILQKIFNELSHLQIIILSSYKTTPKPTLTQLKKVDLFQMIILKIIVSFLSNNSNFIEIMGLLLQLIRNNNVSFLTTSKIGLNLITILISRAALIKQDSSRSNILSSPEISTWNEIYDKLFTSLESKIQLIFPPREYNDHIMRLQNDKFMDEAYIWQFLASLALSGKLNHQRIIIDEVRDEIFATINEAETLQKKEKELSVLPQRSQELDTELKSIIYNKEKLYQDLNLFLNVMGLVYRDGEISELK
notes: mRNA decay factor Pat1 of S. cerevisiae, detected with anti-Pat1 antibodies; source: endogenous, yeast extract
B4: GFP-tagged Tail of Xrn1 (domain or fragment, S. cerevisiae, UniProt P22147 351-521, looked up)
chain: EKDDIDVEWFNKQLENISLEGERKRQRVGKKLLVKQQKKLIGSIKPWLMEQLQEKLSPDLPDEEIPTLELPKDLDMKDHLEFLKEFAFDLGLFITHSKSKGSYSLKMDLDSINPDETEEEFQNRVNSIRKTIKKYQNAIIVEDKEELETEKTIYNERFERWKHEYYHDKLK
notes: holds NLS1; also called Tail-GFP; linker domain; source: yeast, expressed under ADH1 promoter and terminator; pulled down with GFP-Trap resin and washed
B5: Dhh1 (natural protein, S. cerevisiae (endogenous in yeast), UniProt P39517 1-506, looked up)
chain: MGSINNNFNTNNNSNTDLDRDWKTALNIPKKDTRPQTDDVLNTKGNTFEDFYLKRELLMGIFEAGFEKPSPIQEEAIPVAITGRDILARAKNGTGKTAAFVIPTLEKVKPKLNKIQALIMVPTRELALQTSQVVRTLGKHCGISCMVTTGGTNLRDDILRLNETVHILVGTPGRVLDLASRKVADLSDCSLFIMDEADKMLSRDFKTIIEQILSFLPPTHQSLLFSATFPLTVKEFMVKHLHKPYEINLMEELTLKGITQYYAFVEERQKLHCLNTLFSKLQINQAIIFCNSTNRVELLAKKITDLGYSCYYSHARMKQQERNKVFHEFRQGKVRTLVCSDLLTRGIDIQAVNVVINFDFPKTAETYLHRIGRSGRFGHLGLAINLINWNDRFNLYKIEQELGTEIAAIPATIDKSLYVAENDETVPVPFPIEQQSYHQQAIPQQQLPSQQQFAIPPQQHHPQFMVPPSHQQQQAYPPPQMPSQQGYPPQQEHFMAMPPGQSQPQY
notes: mRNA decay factor Dhh1 of S. cerevisiae, detected with anti-Dhh1 antibodies; source: endogenous, yeast extract

Columns and labels:
[1] = target: B2; assay: pull-down; purified Kap120-6xHis mixed with purified Xrn1-FLAG (WT or mutant), 1 h at 4 °C in a rotator; complex captured on Ni-NTA, Western blotting; Xrn1-FLAG intensity normalized to Kap120
[2] = target: Xrn1 WT (Saccharomyces cerevisiae, UniProt P22147 1-1528); assay: pull-down on FLAG beads, competition by Kap120; Kap120 prevents RNA binding dose-dependently; EMSA: 50 mM Tris-HCl pH 7.4, 150 mM NaCl, 2 mM DTT, 1 mM EDTA, 30 min at room temperature, 6% native PAGE in 0.5x TBE; pull-downs with RNA: 2 mM EDTA, 1 h at 4; conditions: protein: native; tags: FLAG; label: Cy3
[3] = target: T2, FLAG-tagged Xrn1 (wild type) (S. cerevisiae, UniProt P22147 1-1528); assay: pull-down; purified Kap120-6xHis mixed with purified Xrn1-FLAG (WT or mutant), 1 h at 4 °C in a rotator; complex captured on Ni-NTA, Western blotting; Xrn1-FLAG intensity normalized to Kap120; conditions: both partners purified
T2 construct: 5' to 3' exonuclease Xrn1 (alias Kem1) of S. cerevisiae, called full-length Xrn1 for the FLAG-tagged purified protein; also called Xrn1-FLAG; Xrn1^WT; source: genomically FLAG-tagged strain, in lysate, for the IP with mass spectrometry

[4] = target: T1, TAP-tagged Kap120; assay: co-IP; TAP-tagged Kap120 affinity purified with IgG-sepharose from extract of optimally proliferating yeast (WT or Xrn1^ΔNLS1/2 cells); co-IPed proteins by Western blotting; signals normalized to Kap120; conditions: partners not purified
[5] = target: B2; assay: pull-down; GFP-tagged Tail held on GFP-Trap resin in a small column, washed 3 times; purified Kap120-His added, 1 h at 4 °C; eluted with 2X LSB at 95 °C; conditions: both partners purified

Chain of Xrn1 WT (P22147 whole entry): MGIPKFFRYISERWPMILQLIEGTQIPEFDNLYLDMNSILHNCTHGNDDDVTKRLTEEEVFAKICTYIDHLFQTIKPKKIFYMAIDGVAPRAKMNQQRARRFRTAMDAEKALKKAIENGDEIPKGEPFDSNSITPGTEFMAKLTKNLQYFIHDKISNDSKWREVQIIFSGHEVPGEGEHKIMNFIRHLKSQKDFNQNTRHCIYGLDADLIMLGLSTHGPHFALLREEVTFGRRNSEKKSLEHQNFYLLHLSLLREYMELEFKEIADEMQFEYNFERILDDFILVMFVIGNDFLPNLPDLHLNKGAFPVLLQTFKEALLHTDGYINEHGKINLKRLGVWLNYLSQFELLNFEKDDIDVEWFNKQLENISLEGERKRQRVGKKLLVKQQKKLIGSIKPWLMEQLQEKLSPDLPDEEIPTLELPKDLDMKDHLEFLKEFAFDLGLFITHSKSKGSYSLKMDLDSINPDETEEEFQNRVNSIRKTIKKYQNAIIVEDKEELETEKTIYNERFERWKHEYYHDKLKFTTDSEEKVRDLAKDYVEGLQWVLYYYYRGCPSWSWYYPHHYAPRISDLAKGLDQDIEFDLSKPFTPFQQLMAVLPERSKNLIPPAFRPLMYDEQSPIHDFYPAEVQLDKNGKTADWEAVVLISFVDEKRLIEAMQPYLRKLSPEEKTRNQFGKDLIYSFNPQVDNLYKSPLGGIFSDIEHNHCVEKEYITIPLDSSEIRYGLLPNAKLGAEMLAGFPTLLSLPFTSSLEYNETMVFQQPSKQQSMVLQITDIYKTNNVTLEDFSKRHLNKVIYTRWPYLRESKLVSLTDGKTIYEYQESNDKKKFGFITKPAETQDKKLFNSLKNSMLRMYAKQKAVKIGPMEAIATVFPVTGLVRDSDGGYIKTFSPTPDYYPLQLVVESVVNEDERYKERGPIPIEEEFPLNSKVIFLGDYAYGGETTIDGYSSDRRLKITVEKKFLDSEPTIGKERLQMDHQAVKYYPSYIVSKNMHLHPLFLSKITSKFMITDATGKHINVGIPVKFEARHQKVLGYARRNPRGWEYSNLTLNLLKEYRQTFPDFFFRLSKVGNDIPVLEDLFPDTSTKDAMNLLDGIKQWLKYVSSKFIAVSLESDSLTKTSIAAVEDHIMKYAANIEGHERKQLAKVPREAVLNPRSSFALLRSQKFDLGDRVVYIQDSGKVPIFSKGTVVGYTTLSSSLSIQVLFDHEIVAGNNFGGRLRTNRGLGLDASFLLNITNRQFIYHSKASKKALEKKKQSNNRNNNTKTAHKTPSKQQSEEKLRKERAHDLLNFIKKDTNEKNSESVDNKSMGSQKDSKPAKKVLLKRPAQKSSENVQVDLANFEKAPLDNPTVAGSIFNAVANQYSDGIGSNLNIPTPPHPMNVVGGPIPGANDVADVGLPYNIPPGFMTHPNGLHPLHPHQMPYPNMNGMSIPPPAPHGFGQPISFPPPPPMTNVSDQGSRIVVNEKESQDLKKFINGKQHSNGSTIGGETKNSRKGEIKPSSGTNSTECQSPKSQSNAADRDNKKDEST
T2 sequence (P22147 whole entry): as above

fold weaker than Xrn1^WT-Kap120 [1]: 4.5 fold
Molecule: FLAG-tagged Xrn1^ΔNLS1/2 (from UniProt P22147 1-1528) (enzyme)

Molecule: B1
binding result [2]: binds

Molecule: B2
binding result [3]: binds

Molecule: B3
fold reduction of the co-IP in Xrn1^ΔNLS1/2 cells against WT cells [4]: ~5 fold

Molecule: B4
binding result [5]: binds

Molecule: B5
fold reduction of the co-IP in Xrn1^ΔNLS1/2 cells against WT cells [4]: ~5 fold
